Experiments:
[1] = biological target: T1, rat IGF1R ectodomain (aa31-936) (Rattus norvegicus, UniProt P24062); assay: SPR; Biacore 3000, multi-cycle kinetics; IGF1R ectodomains amine coupled on CM5 chips (about 1500-2000 RU); VHHs in flow at 20 µL/min, 300 s association, 300 s dissociation; 0.25-10 nM (IGF1R5), 1-25 nM (IGF1R5-H2); HBS-EP pH 7.4, 25 °C; 1:1 binding model; details: both partners purified
T1 construct: insulin-like growth factor-1 receptor, rat, ectodomain, aa31-936; source: NRC Montreal
T1 sequence (P24062 31-936): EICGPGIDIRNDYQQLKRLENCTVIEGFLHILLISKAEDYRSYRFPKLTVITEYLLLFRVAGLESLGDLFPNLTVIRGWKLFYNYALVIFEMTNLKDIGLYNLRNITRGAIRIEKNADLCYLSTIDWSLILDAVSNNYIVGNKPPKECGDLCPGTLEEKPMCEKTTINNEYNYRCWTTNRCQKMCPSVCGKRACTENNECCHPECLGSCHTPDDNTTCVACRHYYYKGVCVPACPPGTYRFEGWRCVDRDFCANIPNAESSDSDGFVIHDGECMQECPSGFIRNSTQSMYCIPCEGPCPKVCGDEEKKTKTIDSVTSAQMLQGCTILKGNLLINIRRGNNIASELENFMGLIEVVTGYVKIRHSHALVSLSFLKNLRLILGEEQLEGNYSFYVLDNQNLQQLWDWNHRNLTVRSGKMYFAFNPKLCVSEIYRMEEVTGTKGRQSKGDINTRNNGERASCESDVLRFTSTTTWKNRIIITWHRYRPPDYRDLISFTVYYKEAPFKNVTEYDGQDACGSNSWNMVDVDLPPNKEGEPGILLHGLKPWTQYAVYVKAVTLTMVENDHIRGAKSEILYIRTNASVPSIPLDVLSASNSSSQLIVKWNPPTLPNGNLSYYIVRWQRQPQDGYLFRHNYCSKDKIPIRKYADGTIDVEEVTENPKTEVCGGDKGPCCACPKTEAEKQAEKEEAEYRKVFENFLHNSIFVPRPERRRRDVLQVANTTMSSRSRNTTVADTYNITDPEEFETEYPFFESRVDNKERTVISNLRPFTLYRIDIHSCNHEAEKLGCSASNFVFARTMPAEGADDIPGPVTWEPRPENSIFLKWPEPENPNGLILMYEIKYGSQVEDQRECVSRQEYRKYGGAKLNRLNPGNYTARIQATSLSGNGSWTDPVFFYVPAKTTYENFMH

[2] = biological target: mouse IGF1R ectodomain (mouse) (UniProt Q60751); assay: SPR; acidic pH: HBS-EP MES buffer pH 5.6, 37 °C; IGF1R ectodomains amine coupled on CM5 chips; VHHs in flow, 0.25-10 nM (IGF1R5), 1-50 nM (IGF1R5-H2); 1:1 binding model
Sequence of mouse IGF1R ectodomain (mouse) (Q60751 742-936): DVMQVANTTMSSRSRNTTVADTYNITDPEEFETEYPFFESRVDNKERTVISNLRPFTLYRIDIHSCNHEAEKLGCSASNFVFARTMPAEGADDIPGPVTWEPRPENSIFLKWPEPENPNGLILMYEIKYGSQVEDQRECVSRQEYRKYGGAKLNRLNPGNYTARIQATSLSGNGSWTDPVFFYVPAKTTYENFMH

[3] = biological target: Human IGF1R ectodomain (UniProt P08069); assay: as above
Sequence of Human IGF1R ectodomain (P08069 741-935): as the sequence (Q60751 742-936) above, with V19A, F31L, P185Q, T189G, M194I counted along it

[4] = biological target: mouse IGF1R ectodomain (mouse) (UniProt Q60751); assay: SPR; Biacore 3000, multi-cycle kinetics; IGF1R ectodomains amine coupled on CM5 chips (about 1500-2000 RU); VHHs in flow at 20 µL/min, 300 s association, 300 s dissociation; 0.25-10 nM (IGF1R5), 1-25 nM (IGF1R5-H2); HBS-EP pH 7.4, 25 °C; 1:1 binding model
[5] = biological target: Human IGF1R ectodomain (UniProt P08069); assay: as above
[6] = biological target: T2, rhesus IGF1R ectodomain (aa31-932) (Macaca mulatta, UniProt I2CWY3); assay: SPR; Biacore T200, single-cycle kinetics (rhesus IGF1R); IGF1R ectodomain amine coupled on CM5 chip; VHHs in flow at 40 µL/min, 180 s association, 600 s dissociation; 0.25-10 nM (IGF1R5), 1-25 nM (IGF1R5-H2); HBS-EP pH 7.4, 25 °C; 1:1 binding model; details: both partners purified
T2 construct: insulin-like growth factor-1 receptor, rhesus, ectodomain, aa31-932; source: NRC Montreal
T2 sequence (I2CWY3 entry or part of it): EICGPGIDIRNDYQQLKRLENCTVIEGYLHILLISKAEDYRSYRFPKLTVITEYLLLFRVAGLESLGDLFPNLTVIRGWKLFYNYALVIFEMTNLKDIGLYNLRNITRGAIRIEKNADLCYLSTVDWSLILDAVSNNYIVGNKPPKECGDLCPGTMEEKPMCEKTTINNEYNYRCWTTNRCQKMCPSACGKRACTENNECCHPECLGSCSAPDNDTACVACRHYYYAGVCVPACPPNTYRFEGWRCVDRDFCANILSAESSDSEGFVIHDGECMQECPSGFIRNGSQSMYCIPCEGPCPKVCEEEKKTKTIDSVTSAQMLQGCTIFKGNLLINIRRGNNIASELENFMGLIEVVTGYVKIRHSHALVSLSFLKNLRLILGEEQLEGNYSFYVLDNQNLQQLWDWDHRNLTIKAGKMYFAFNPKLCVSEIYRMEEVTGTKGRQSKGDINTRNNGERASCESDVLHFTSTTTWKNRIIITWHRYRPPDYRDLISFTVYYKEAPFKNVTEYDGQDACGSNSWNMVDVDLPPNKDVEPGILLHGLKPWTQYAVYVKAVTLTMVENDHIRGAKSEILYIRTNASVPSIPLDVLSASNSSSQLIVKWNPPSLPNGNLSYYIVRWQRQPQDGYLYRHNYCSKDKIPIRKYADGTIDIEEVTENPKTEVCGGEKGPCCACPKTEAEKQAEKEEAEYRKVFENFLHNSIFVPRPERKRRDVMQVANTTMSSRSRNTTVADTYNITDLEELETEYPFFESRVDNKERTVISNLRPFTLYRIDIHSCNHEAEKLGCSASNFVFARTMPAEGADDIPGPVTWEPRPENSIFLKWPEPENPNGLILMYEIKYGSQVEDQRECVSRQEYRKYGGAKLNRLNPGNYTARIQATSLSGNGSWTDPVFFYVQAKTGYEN

B1: IGF1R5 single-domain antibody (camelid VHH against insulin-like growth factor-1 receptor) (VHH)
VHH: QVKLEESGGGLVQAGGSLRLSCAASGRTIDNYAMAWSRQAPGKDREFVATIDWGDGGARYANSVKGRFTISRDNAKGTMYLQMNNLEPEDTAVYSCAMARQSRVNLDVARYDYWGQGTQVTVSS
notes: Monomeric VHH fraction isolated by SEC was used for SPR; Isolated from a phage display library of a llama immunized with the extracellular domain of human IGF1R (933 amino acids); also called wild-type IGF1R5; IGF1R5 sdAb; source: TG1 Escherichia coli, purified (HiTrap Chelating HP; preparative SEC on Superdex S75 Increase just before SPR)
With B1 the Kd [1] was 1.1 nM, the koff [1] was 0.00038 s⁻¹ and the kon [1] was 340000 M⁻¹ s⁻¹. It also gave a Kd [2] of 4.8 nM, a koff [2] of 0.0028 s⁻¹ and a kon [2] of 590000 M⁻¹ s⁻¹. The Kd [3] was 4 nM, the koff [3] was 0.0028 s⁻¹ and the kon [3] was 690000 M⁻¹ s⁻¹. The Kd [4] was 1.1 nM, the koff [4] was 0.0003 s⁻¹ and the kon [4] was 260000 M⁻¹ s⁻¹. It also gave a Kd [5] of 0.64 nM, a koff [5] of 0.00034 s⁻¹ and a kon [5] of 530000 M⁻¹ s⁻¹. For the same binder, the Kd [6] was 0.4 nM, the koff [6] was 0.00059 s⁻¹ and the kon [6] was 1.5e+06 M⁻¹ s⁻¹.

B2: IGF1R5-H2, humanized variant of the IGF1R5 single-domain antibody (VHH)
VHH: QVQLVESGGGLVQPGGSLRLSCAASGRTIDNYAMAWVRQAPGKGLEWVATIDWGDGGTRYANSVKGRFTISRDNSKNTMYLQMNSLRAEDTAVYYCAMARQSRVNLDVARYDYWGQGTLVTVSS
notes: CDRs of m1 grafted on a human VH3 germline framework, 4 back-mutations in the Vernier zone, no camelizing back-mutations in FR2, CDR2 point mutation A57T; Kabat numbering; Changes are stated against the camelid IGF1R5; also called humanized IGF1R5-H2; source: produced and purified as described for the llama sdAbs (TG1 Escherichia coli, HiTrap Chelating HP; preparative SEC just before SPR)
Binder B2 has a Kd [1] of 11 nM, a koff [1] of 0.0026 s⁻¹ and a kon [1] of 230000 M⁻¹ s⁻¹. It also gave a Kd [2] of 150 nM, a koff [2] of 0.043 s⁻¹ and a kon [2] of 290000 M⁻¹ s⁻¹. For the same binder, the Kd [3] was 160 nM, the koff [3] was 0.034 s⁻¹ and the kon [3] was 210000 M⁻¹ s⁻¹. The Kd [4] was 9.1 nM, the koff [4] was 0.0021 s⁻¹ and the kon [4] was 230000 M⁻¹ s⁻¹. For the same binder, the Kd [5] was 7.6 nM, the koff [5] was 0.0029 s⁻¹ and the kon [5] was 380000 M⁻¹ s⁻¹. For the same binder, the Kd [6] was 17 nM, the koff [6] was 0.0038 s⁻¹ and the kon [6] was 230000 M⁻¹ s⁻¹.
